Earlier results, collected in patent US6632836B1, “Carbocyclic potassium channel inhibitors” (Merck & Co., Inc., priority 1998, dated 2003).

Biological target: T1, Kv1.3 channels (Homo sapiens, UniProt P22001)
T1 construct: expressed in transfected cells; host or cells: CHO cells
Settings: reference blocker used at saturating concentration to establish the efflux window; read-out: IC50 as blocker of Kv1.3 channels

T1 sequence (P22001 whole entry): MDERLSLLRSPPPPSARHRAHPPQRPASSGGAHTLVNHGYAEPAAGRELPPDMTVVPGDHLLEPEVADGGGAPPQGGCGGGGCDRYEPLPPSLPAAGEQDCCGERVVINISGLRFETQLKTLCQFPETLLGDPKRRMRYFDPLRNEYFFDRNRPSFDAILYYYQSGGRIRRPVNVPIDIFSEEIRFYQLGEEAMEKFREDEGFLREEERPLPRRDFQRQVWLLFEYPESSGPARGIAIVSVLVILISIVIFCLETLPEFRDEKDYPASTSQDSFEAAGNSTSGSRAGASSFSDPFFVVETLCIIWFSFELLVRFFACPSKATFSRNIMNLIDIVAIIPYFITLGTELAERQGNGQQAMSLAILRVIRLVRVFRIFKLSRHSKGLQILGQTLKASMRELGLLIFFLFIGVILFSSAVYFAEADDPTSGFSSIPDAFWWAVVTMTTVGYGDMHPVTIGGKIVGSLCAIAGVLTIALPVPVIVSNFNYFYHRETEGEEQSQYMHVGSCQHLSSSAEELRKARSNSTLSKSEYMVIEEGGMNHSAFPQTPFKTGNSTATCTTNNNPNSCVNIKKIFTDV

With “margatoxin (TIINVKCTSPKQCLPPCKAQFGQSAGAKCMNGKCKCYPH; UniProt P40755 1-39, looked up)” as the substance, how does the IC50 read?
Its IC50 is 0.1 nM.
